# In PMC2169338 (The Journal of Cell Biology, 1999):
# B1: Tom40 (natural protein)
# chain: not shown
# B2: Tom70 (receptor, UniProt P23231 1-624, looked up)
# chain: MAPTIPPPSVPIPAATPVTVPADSSIWDRVSNWVSEHKAVVYTIAGVSVVITTAGVVYYLRKGSEQKESGPKLSKKERRKRKQAEKGEAEKASTSKTEEAAPTQPKAAAVESADELPEIDEESVVRLSEDERKAYAAKLKELGNKAYGSKDFNKAIDLYSKAIICKPDPVYYSNRAACHNALAQWEQVVADTTAALKLDPHYVKALNRRANAYDQLSRYSDALLDFTASCIIDGFRNEQSAQAVERLLKKFAENKAKEILETKPPKLPSSTFVGNYLQSFRSKPRPEGLEDSVELSEETGLGQLQLGLKHLESKTGTGYEEGSAAFKKALDLGELGPHEALAYNLRGTFHCLMGKHEEALADLSKSIELDPAMTQSYIKRASMNLELGHPDKAEEDFNKAIEQNAEDPDIYYHRAQLHFIKGEFAEAAKDYQKSIDLDSDFIFSHIQLGVTQYKMGSIASSMATFRRCMKNFDQTPDVYNYYGELLLDQNKFQEAIEKFDTAIALEKETKPMCMNVLPLINKALALFQWKQDYAEAEQLCEKALIIDPECDIAVATMAQLLLQQGKVVEALKFFERAAELARTEGELVNALSYAEATRTQIQVQENYPELASKLQGMSGGPGMR
# Tests used:
# [1] = molecular target: the molecule itself; test: 35S-sulfate labelling, SDS-PAGE and phosphorimaging of the purified complex
# [2] = molecular target: the molecule itself; test: SDS-PAGE
protein,measurement,setting,value
B1,stoichiometry N,[1],~8 copies of Tom40 in the core complex
B2,stoichiometry N,[2],2
